PMC2581641 (Molecular microbiology, 2008)
Positions count from the first letter of the chain named.

Legend:
Test in all cases: two-hybrid
[1] = target: T1, λCI-Rsd fusion protein with substitution G14E (E. coli, UniProt P0AFX4 1-158, G14E)
T1 sequence (looked up): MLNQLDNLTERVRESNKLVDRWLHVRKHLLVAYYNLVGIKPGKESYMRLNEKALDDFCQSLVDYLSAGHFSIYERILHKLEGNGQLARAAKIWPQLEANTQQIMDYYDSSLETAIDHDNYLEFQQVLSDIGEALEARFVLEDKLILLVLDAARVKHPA

[2] = target: T2, λCI-Rsd fusion protein with substitutions G14E and Y34F (E. coli, UniProt P0AFX4 1-158, G14E | Y34F)
T2 sequence (looked up): T1 sequence (looked up) with Y34F

[3] = target: T3, λCI-Rsd fusion protein with substitution Y34F (E. coli, UniProt P0AFX4 1-158, Y34F)
T3 sequence (looked up): T1 sequence (looked up) with E14G, Y34F

λCI-AlgQ fusion protein = target: T4, λCI-AlgQ fusion protein (P. aeruginosa, UniProt P15275 1-160)
T4 sequence (looked up): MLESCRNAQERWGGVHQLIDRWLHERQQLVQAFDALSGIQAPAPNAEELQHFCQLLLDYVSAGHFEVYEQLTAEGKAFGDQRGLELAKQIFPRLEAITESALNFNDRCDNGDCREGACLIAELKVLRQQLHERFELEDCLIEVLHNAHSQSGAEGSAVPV

B1: α-σ^70 region 2 fusion protein (domain or fragment, E. coli, UniProt P00579 94-448, looked up)
chain: TTDPVRMYMREMGTVELLTREGEIDIAKRIEDGINQVQCSVAEYPEAITYLLEQYDRVEAEEARLSDLITGFVDPNAEEDLAPTATHVGSELSQEDLDDDEDEDEEDGDDDSADDDNSIDPELAREKFAELRAQYVVTRDTIKAKGRSHATAQEEILKLSEVFKQFRLVPKQFDYLVNSMRVMMDRVRTQERLIMKLCVEQCKMPKKNFITLFTGNETSDTWFNAAIAMNKPWSEKLHDVSEEVHRALQKLQQIEEETGLTIEQVKDINRRMSIGEAKARRAKKEMVEANLRLVISIAKKYTNRGLQFLDLIQEGNIGLMKAVDKFEYRRGYKFSTYATWWIRQAITRSIADQAR
For B1, the “fold activation of lacZ transcription” value [1] was roughly 10 fold, the “fold activation of lacZ transcription” value [2] was roughly 12 fold and the “fold activation of lacZ transcription” value [3] was roughly 9 fold.

B2: α-Pa σ^70 region 2 fusion protein (domain or fragment, P. aeruginosa, UniProt P26480 96-450, looked up)
chain: TTDPVRMYMREMGTVELLTREGEIEIAKRIEEGIREVMSAIAQFPGTVDSILADYNRIVAEGGRLSDVLSGYIDPDDGSLPAEEVEPVNLKDDSADSKEKDDEEEESDDSSDSDDEGDGGPDPEEARLRFTAVSEQLDKAKKALKKHGRGSKQATAELTGLAELFMPIKLVPKQFDALVARVRSALEGVRAQERAIMQLCVRDARMPRADFLRLFPNHETDEKWVDSVLKSKPKYAEAIERLRDDILRNQQKLAALESEVELTVAEIKEINRAMSIGEAKARRAKKEMVEANLRLVISIAKKYTNRGLQFLDLIQEGNIGLMKAVDKFEYRRGYKFSTYATWWIRQAITRSIADQ
For B2, the “fold activation of lacZ transcription” value (λCI-AlgQ fusion protein) was roughly 14 fold.
